According to paper PMC5386376, “Structural insight into an evolutionarily ancient programmed cell death regulator – the crystal structure of marine sponge BHP2 bound to LB-Bak-2” (Cell Death & Disease, 2017):

T1: BHP2 (pro-survival Bcl-2 homolog from Geodia cydonium), residues 18-200 (Geodia cydonium, UniProt Q967D2 18-200)
T1 construct: BHP2, Geodia cydonium, Uniprot Q967D2, residues 18-200; codon-optimized synthetic cDNA; also called recombinant BHP2; source: E. coli BL21 (DE3) star, purified (Glutathione Sepharose 4B, HRV 3C protease cleavage on column, Superdex S200 SEC)
T1 sequence (looked up): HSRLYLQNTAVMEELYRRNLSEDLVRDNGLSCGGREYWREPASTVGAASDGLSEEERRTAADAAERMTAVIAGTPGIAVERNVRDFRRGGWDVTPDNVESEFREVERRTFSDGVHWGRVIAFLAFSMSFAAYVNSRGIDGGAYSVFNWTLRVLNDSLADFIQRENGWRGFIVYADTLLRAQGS

B1: human Hrk BH3 peptide (peptide)
chain: not shown
B2: LB-Bak-2 BH3 peptide (residues 62-89) (peptide, UniProt Q1RPT5 62-89, looked up)
peptide: ALASSMASEVGRRLAEFGDQVDGQFYQE
notes: LB-Bak-2, Lubomirskia baicalensis, Uniprot Q1RPT5, BH3 motif, residues 62-89; also called LB-Bak-2 BH3 motif; LB-Bak-2 BH3 domain; source: synthetic peptide (GenScript), purified to 95%

Molecular target: T1, BHP2 (pro-survival Bcl-2 homolog from …)
Test: ITC; BH3 peptide (200 μM) titrated into BHP2 (20 μM), 19 injections of 2.0 μl, MicroCal iTC200, 25 °C, 25 mM HEPES pH 7.5, 150 mM NaCl; triplicate
Details: both partners purified

Binder | Kd [µM]
B1 | 3.76
B2 | 0.065
